Results: patent US20070054848A1 (published 2007)
Each block holds one binder with its values, some of them ahead of it.

B2: endogenous p75 of mouse post-natal (P9) cerebellum / cerebellar neurons (receptor, UniProt Q9Z0W1 32-427, looked up)
chain: KETCSTGMYTHSGECCKACNLGEGVAQPCGANQTVCEPCLDSVTFSDVVSATEPCKPCTECLGLQSMSAPCVEADDAVCRCSYGYYQDEETGRCEACSVCGVGSGLVFSCQDKQNTVCEECPEGTYSDEANHVDPCLPCTVCEDTERQLRECTPWADAECEEIPGRWITRSTPPEGSDVTTPSTQEPEAPPERDLIASTVADTVTTVMGSSQPVVTRGTADNLIPVYCSILAAVVVGLVAYIAFKRWNSCKQNKQGANSRPVNQTPPPEGEKLHSDSGISVDSQSLHDQQTHTQTASGQALKGDGNLYSSLPLTKREEVEKLLNGDTWRHLAGELGYQPEHIDSFTHEACPVRALLASWGAQDSATLDALLAALRRIQRADIVESLCSESTATSPV
notes: Endogenous protein in lysates; also called p75NTR

Columns and labels:
[1] = target: B2; assay: figure legend (FIG. 6C): co-immunoprecipitation of p75 and Rho GDI from cerebellar neurons
Description: The lysates were centrifuged at 13,000×g for 20 min, and the supernatants were collected. […] The immunocomplex was collected with protein A sepharose (Amersham Pharmacia). The suspension was centrifuged at 1,000×g for 5 min. The pellets were washed 4 times with lysis buffer, and subjected to SDS-PAGE, followed by immunoblot analysis using anti-Rho GDIα antibody (Sigma) or anti-RhoA antibody (Santa Cruz Biotechnology).

[2] = target: T1, Nogo receptor, endogenous in P9 cerebellum (UniProt Q99PI8 27-447); assay: figure legend (FIG. 11C)
T1 construct: also called NgR; the Nogo receptor
T1 sequence (looked up): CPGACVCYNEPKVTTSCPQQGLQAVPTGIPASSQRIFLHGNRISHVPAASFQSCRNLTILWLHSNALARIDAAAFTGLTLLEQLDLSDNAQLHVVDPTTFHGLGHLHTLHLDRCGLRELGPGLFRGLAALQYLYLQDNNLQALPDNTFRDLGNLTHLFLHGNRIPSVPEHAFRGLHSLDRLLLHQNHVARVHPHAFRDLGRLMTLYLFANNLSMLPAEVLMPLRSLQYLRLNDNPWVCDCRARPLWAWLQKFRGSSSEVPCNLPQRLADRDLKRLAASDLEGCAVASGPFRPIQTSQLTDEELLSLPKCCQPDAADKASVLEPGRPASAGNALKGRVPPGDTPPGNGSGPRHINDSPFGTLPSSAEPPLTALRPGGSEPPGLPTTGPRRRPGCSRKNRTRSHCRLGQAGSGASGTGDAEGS

[3] = target: T2, amino-terminally FLAG-tagged human p75 (human, UniProt P08138 29-427); assay: co-precipitation: p75 precipitated from transfected 293T cells (anti-FLAG, protein A sepharose) incubated with GST-Rho GDI, anti-GST blot
T2 construct: also called FLAG-tagged p75; FLAG-p75; not shown: FLAG tag
T2 sequence: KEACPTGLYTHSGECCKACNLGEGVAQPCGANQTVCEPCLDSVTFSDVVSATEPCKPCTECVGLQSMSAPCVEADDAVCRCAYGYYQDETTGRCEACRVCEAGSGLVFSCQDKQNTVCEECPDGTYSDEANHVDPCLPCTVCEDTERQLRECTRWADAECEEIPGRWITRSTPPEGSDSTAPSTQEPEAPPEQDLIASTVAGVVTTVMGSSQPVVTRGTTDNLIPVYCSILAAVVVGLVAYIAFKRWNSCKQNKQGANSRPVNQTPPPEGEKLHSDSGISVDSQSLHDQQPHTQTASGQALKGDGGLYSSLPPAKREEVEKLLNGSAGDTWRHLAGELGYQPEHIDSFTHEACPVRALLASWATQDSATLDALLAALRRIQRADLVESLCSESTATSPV

- binding result [1]: binds
B1: Rho GDI, endogenous in mouse post-natal cerebellar neurons (other, UniProt Q99PT1 2-204, looked up)
chain: AEQEPTAEQLAQIAAENEEDEHSVNYKPPAQKSIQEIQELDKDDESLRKYKEALLGRVAVSADPNVPNVIVTRLTLVCSTAPGPLELDLTGDLESFKKQSFVLKEGVEYRIKISFRVNREIVSGMKYIQHTYRKGVKIDKTDYMVGSYGPRAEEYEFLTPMEEAPKGMLARGSYNIKSRFTDDDKTDHLSWEWNLTIKKEWKD

Binder: B2
- binding result [2]: binds

- binding result [3]: binds
B3: recombinant human GST-Rho GDI (other)
chain: MAEQEPTAEQLAQIAAENEEDEHSVNYKPPAQKSIQEIQELDKDDESLRKYKEALLGRVAVSADPNVPNVVVTGLTLVCSSAPGPLELDLTGDLESFKKQSFVLKEGVEYRIKISFRVNREIVSGMKYIQHTYRKGVKIDKTDYMVGSYGPRAEEYEFLTPVEEAPKGMLARGSYSIKSRFTDDDKTDHLSWEWNLTIKKDWKD
notes: Bought (Cytoskeleton); also called recombinant Rho GDI; not shown: glutathione S-transferase (GST) fusion moiety
